{"source": "paper PMC6515479", "about": "“An Investigation on Glucuronidation Metabolite Identification, Isozyme Contribution, and Species Differences of GL-V9 In Vitro and In Vivo” (Molecules, 2019)", "assay_type_in_all_cases": "in vitro ADME, human", "key": {"[1]": {"substrate": "COc1c(OCCCCN2CCCC2)cc(O)c2c(=O)cc(-c3ccccc3)oc12", "test": "Recombinant enzyme kinetics of GL-V9 glucuronidation, rUGT1A9", "conditions": "other: formation of 5-O-glucuronide GL-V9, rUGT1A9, protein 0.06 mg/mL, 1 h at 37 °C, mean ± SD, n = 3, pH 7.4"}, "[2]": {"substrate": "COc1c(OCCCCN2CCCC2)cc(O)c2c(=O)cc(-c3ccccc3)oc12", "test": "Recombinant enzyme kinetics of GL-V9 glucuronidation, rUGT1A8", "conditions": "other: formation of 5-O-glucuronide GL-V9, rUGT1A8, protein 0.06 mg/mL, 1 h at 37 °C, mean ± SD, n = 3, pH 7.4", "protocol": "[The source words this procedure for another target and says it was used here with some conditions changed.] (§1) The composition of the incubation system (200 μL) contained liver microsomes of different species (0.1 mg protein/mL), 5 mM saccharolactone (D-saccharic acid 1,4-lactone monohydrate), 10 mM MgCl2, alamethicin (50 μg/mg protein), Tris-HCl buffer (50 mM, pH 7.4) and GL-V9 (1 μM). After 5 min of preincubation at 37 °C, UDPGA (5 mM) was added to initiate the phase II reaction. Control incubation samples were performed without UDPGA or without substrates (GL-V9). The reaction was terminated by addition of ice-cold methanol (three volumes) after incubation for 1 h at 37 °C. Samples were vortexed, centrifuged at 21,500× g for 10 min and then stored at 4 °C until HPLC-UV-TripleTOF analysis. To confirm that these metabolites are conjugates resulting from glucuronidation reaction, enzymatic hydrolysis of samples was processed. β-glucuronidase (100 KU, Sigma) was added and the hydrolysis was performed overnight at 37 °C. The control samples were carried out without β-glucuronidase under the same condition.\n(§2) Rates of the glucuronidation of GL-V9 were described as amounts of glucuronides formed per minute per milligram (pmol/min/mg). The calculation model of kinetic parameters was selected by the profile of Eadie-Hofstee plots. It often includes three possibilities: (1) the Eadie-Hofstee plot was linear, the formation rates of glucuronides (V) at different substrate concentrations (C) were fit to the standard Michaelis-Menten calculation of GraphPad Prism (version 6.02, GraphPad Software Inc., Guildford, Surrey, UK); (2) the Eadie-Hofstee plot was atypical kinetic-autoactivation, the rates and concentration were fit with the allosteric sigmoidal function of GraphPad Prism; (3) the Eadie-Hofstee plot was atypical kinetic-biphasic, the rates and concentration were fit with the […] of GraphPad Prism."}, "[3]": {"substrate": "COc1c(OCCCCN2CCCC2)cc(O)c2c(=O)cc(-c3ccccc3)oc12", "test": "Recombinant enzyme kinetics of GL-V9 glucuronidation, rUGT1A7", "conditions": "other: formation of 5-O-glucuronide GL-V9, rUGT1A7, protein 0.05 mg/mL, 1 h at 37 °C, mean ± SD, n = 3, pH 7.4", "protocol": "[The source words this procedure for another target and says it was used here with some conditions changed.] as §1, §2"}}}
{"protein": "rUGT1A9 (Homo sapiens) (protein, purchased Corning (Woburn, MA, USA)) GKLLVVPMDGSHWFTMRSVVEKLILRGHEVVVVMPEVSWQLGRSLNCTVKTYSTSYTLEDLDREFKAFAHAQWKAQVRSIYSLLMGSYNDIFDLFFSNCRSLFKDKKLVEYLKESSFDAVFLDPFDNCGLIVAKYFSLPSVVFARGILCHYLEEGAQCPAPLSYVPRILLGFSDAMTFKERVRNHIMHLEEHLLCHRFFKNALEIASEILQTPVTEYDLYSHTSIWLLRTDFVLDYPKPVMPNMIFIGGINCHQGKPLPMEFEAYINASGEHGIVVFSLGSMVSEIPEKKAMAIADALGKIPQTVLWRYTGTRPSNLANNTILVKWLPQNDLLGHPMTRAFITHAGSHGVYESICNGVPMVMMPLFGDQMDNAKRMETKGAGVTLNVLEMTSEDLENALKAVINDKSYKENIMRLSSLHKDRPVEPLDLAVFWVEFVMRHKGAPHLRPAAHDLTWYQYHSLDVIGFLLAVVLTVAFITFKCCAYGYRKCLGKKGRVKKAHKSKTH", "values": [{"measurement": "Km", "setting": "[1]", "value": "4.72 ± 0.28", "unit": "µM"}, {"measurement": "Vmax", "setting": "[1]", "value": 0.000148, "unit": "µmol/min/mg"}]}
{"protein": "rUGT1A8 (Homo sapiens) (protein, purchased Corning (Woburn, MA, USA)) GKLLVVPMDGSHWFTMQSVVEKLILRGHEVVVVMPEVSWQLGKSLNCTVKTYSTSYTLEDLDREFMDFADAQWKAQVRSLFSLFLSSSNGFFNLFFSHCRSLFNDRKLVEYLKESSFDAVFLDPFDACGLIVAKYFSLPSVVFARGIACHYLEEGAQCPAPLSYVPRILLGFSDAMTFKERVRNHIMHLEEHLFCQYFSKNALEIASEILQTPVTAYDLYSHTSIWLLRTDFVLDYPKPVMPNMIFIGGINCHQGKPLPMEFEAYINASGEHGIVVFSLGSMVSEIPEKKAMAIADALGKIPQTVLWRYTGTRPSNLANNTILVKWLPQNDLLGHPMTRAFITHAGSHGVYESICNGVPMVMMPLFGDQMDNAKRMETKGAGVTLNVLEMTSEDLENALKAVINDKSYKENIMRLSSLHKDRPVEPLDLAVFWVEFVMRHKGAPHLRPAAHDLTWYQYHSLDVIGFLLAVVLTVAFITFKCCAYGYRKCLGKKGRVKKAHKSKTH", "values": [{"measurement": "Km", "setting": "[2]", "value": "13.92 ± 1.05", "unit": "µM"}, {"measurement": "Vmax", "setting": "[2]", "value": "5.06e-05", "unit": "µmol/min/mg"}, {"measurement": "Vmax/Km", "setting": "[2]", "value": 3.64, "unit": "µL/min/mg"}]}
{"protein": "rUGT1A7 (Homo sapiens) (protein, purchased Corning (Woburn, MA, USA)) GKLLVVPMDGSHWFTMQSVVEKLILRGHEVVVVMPEVSWQLGRSLNCTVKTYSTSYTLEDQDREFMVFADARWTAPLRSAFSLLTSSSNGIFDLFFSNCRSLFNDRKLVEYLKESCFDAVFLDPFDACGLIVAKYFSLPSVVFARGIFCHYLEEGAQCPAPLSYVPRLLLGFSDAMTFKERVWNHIMHLEEHLFCPYFFKNVLEIASEILQTPVTAYDLYSHTSIWLLRTDFVLEYPKPVMPNMIFIGGINCHQGKPVPMEFEAYINASGEHGIVVFSLGSMVSEIPEKKAMAIADALGKIPQTVLWRYTGTRPSNLANNTILVKWLPQNDLLGHPMTRAFITHAGSHGVYESICNGVPMVMMPLFGDQMDNAKRMETKGAGVTLNVLEMTSEDLENALKAVINDKSYKENIMRLSSLHKDRPVEPLDLAVFWVEFVMRHKGAPHLRPAAHDLTWYQYHSLDVIGFLLAVVLTVAFITFKCCAYGYRKCLGKKGRVKKAHKSKTH", "values": [{"measurement": "Km", "setting": "[3]", "value": "3.25 ± 0.29", "unit": "µM"}, {"measurement": "Vmax", "setting": "[3]", "value": "3.11e-05", "unit": "µmol/min/mg"}, {"measurement": "Vmax/Km", "setting": "[3]", "value": 9.58, "unit": "µL/min/mg"}]}
